From the nanobody polyreactivity screen of Harvey et al. (2022)

Test: yeast display, Sf9 membrane polyspecificity reagent, FACS + sequencing; frameworks hold sequencing errors
Summary of the method: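 After 36–48 hours of galactose induction, yeast (Saccharomyces cerevisiae BJ5465) displaying a synthetic nanobody library were stained at 4 °C for 1 hour with 10% biotinylated, detergent-solubilized Sf9 membrane reagent. Streptavidin microbeads enriched the stained cells before FACS sorting into low and high (top ~1%) gates on anti-HA and streptavidin fluorescence. Each clone's polyreactivity label reflects its gate of origin.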

Sequence	polyreactivity (PSR sort gate)
QVQLVESGGGLVQAGGSLRLSCAASGRTFVLYAMGWYRQAPGKERELVASITSGGSTNYADSVKGRFTISRDNAKNTVYLQMNSLKPEDTAVYYCNADLDVYLWFIFTVYQDDYDYWGQGTQVTVSS	high polyreactivity
QVQLVESGGGLVQAGGSLRLSCAASGRTFVPYAMGWYRQAPGKERELVAAINSGGSTYYADSVKGRFTISRDNAKNTVYLQMNSLKPEDTAVYYCAAEYWNSRFSYAYGYWGQGTQVTVSS	high polyreactivity
QVQLVESGGGLVQAGGSLRLSCAASGRTFVPYAMGWYRQAPGKERELVAAISYSGDSTYYADSVKGRFTISRDNAKNTVYLQMNSLKPEDTAVYYCAARGGNPFYYWGQGTQVTVSS	low polyreactivity
QVQLVESGGGLVQAGGSLRLSCAASGRTFVRNAMGWYRQAPGKERELVAAINSGGSTNYADSLKGRFTISRDNPKNTVYLQMNSLKPEDTAVYYCNAPRQHVGNGNYWGQGTQVTVSS	low polyreactivity
QVQLVESGGGLVQAGGSLRLSCAASGRTFVRYAMGWYRQAPGKERELVAAISTSGGNTYYADSVKGRFTISRDNAKNTVYLQMNSLKPEDTAVYYCAKDRGPNAKFDYWGQGTQVTVSS	low polyreactivity
QVQLVESGGGLVQAGGSLRLSCAASGRTFVRYAMGWYRQAPGKERELVAAITSGGSTYADSVKGRFTISRDNAKNTVYLQMNSLKPEDTAVYYCAARRYPSYGSWGQGTQVTVSS	low polyreactivity
QVQLVESGGGLVQAGGSLRLSCAASGRTFVRYAMGWYRQAPGKERELVARITSRGTSTYYADSVKGRFTISRDNAKNTVYLQMNSLKPEDTAVYYCNKVRTFRDKSRYDYWGQGTQVTVSS	low polyreactivity
QVQLVESGGGLVQAGGSLRLSCAASGRTFVRYAMGWYRQAPGKERELVARITSSGGSTYYADSVKGRFTISRDNAKNTVYLQMNSLKPEDTAVYYCAKDTAFYRFQGHYGYWGQGTQVTVSS	high polyreactivity
QVQLVESGGGLVQAGGSLRLSCAASGRTFVSYAMGWYRQAPGKERELVAAIRWGTGSRTYYADSVKGRFTISRDNAKNTVYLQMNSLKPEDTAVYYCAKTDWYPYGYWGQGTQVTVSS	low polyreactivity
QVQLVESGGGLVQAGGSLRLSCAASGRTFVSYAMGWYRQAPGKERELVAAIRYRGGSTYYADSVKGRFTISRDNAMNTVYLQMNSLKPEDTAVYYCAANQGRYNIYSNYDYWGQGTQVTVSS	high polyreactivity
QVQLVESGGGLVQAGGSLRLSCAASGRTFVTNTMGWYRQAPGKEREFVAAITWNGGGTYYADSVKGRFTISRDNAKNTVYLQMNSLKPEDTAVYYCAARGRTDSYWRFYHWGQGTQVTVSS	high polyreactivity
QVQLVESGGGLVQAGGSLRLSCAASGRTFVTYAMGWYRQAPGKERELVAGISRRGGRTYYADSVKGRFTISRDNAKNTVYLQMNSLKPEDTAVYYCAAYDRITRYDYWGQGTQVTVSS	high polyreactivity
QVQLVESGGGLVQAGGSLRLSCAASGRTFVTYGMGWYRQAPGKERQLVAAISKRGSRTYYADSVKGRFTISRDNAKNTVYLQMNSLKPEDTAVYYCNAETYRTTYDYWGQGTQVTVSS	high polyreactivity
QVQLVESGGGLVQAGGSLRLSCAASGRTFVVNAMGGYRQAPGKERELVAAITYSGDTTYYADSVKGRFTISRDNAKNTVYLQMNSLKPEDTAVYYCAADTGVVSPPAGLLIGPFDSWGQGTQVTVSS	low polyreactivity
QVQLVESGGGLVQAGGSLRLSCAASGRTFVWYAMGWYRHAPGKERELVAAISRSGGSTYYADSVKGRFTISRDNAKNTVYLQMNSLKPEDTAVYYCNAQWYVYDYYEFDYWGQGTQVTVSS	high polyreactivity
QVQLVESGGGLVQAGGSLRLSCAASGRTFVWYDMGWYRQAPGKERELVAAITKRGTSTYYADSVKGRFTISRDNGKNTVYLQMNRLKPEDTAVYYCAVEYIYWFHSRSSYIYDYWGQGTQVTVSS	low polyreactivity
QVQLVESGGGLVQAGGSLRLSCAASGRTFVYNAMGWYRQAPGKERELVAAISSDGASTYYADSVKGRFTISRDNAKNTVYLQMNSLKPEDTAVYYCAADFSYYSYEHYYWGQGTKVTVSS	low polyreactivity
QVQLVESGGGLVQAGGSLRLSCAASGRTFVYNAMGWYRQAPGKERELVAAISSDGASTYYADSVKGRFTISRDNAKNTVYLQMNSLKPEDTAVYYCAADFSYYSYEHYYWVQGTQVTVSS	low polyreactivity
QVQLVESGGGLVQAGGSLRLSCAASGRTFVYNAMGWYRQAPGKERELVAAITWNGGSTYYADSVKGRFTISRDNAKNTVYLQMNSLKPEDTAVYYCNRDVRYVGPSGFDYWGQGTQVTVSS	high polyreactivity
QVQLVESGGGLVQAGGSLRLSCAASGRTFVYYAMGRYRQAPGKERELVAAISGSGGSTYYADSVKGRFTISRDNAKNTVYLQMISLKPEDTAVYYCAAGPRGRYRYGYWGQGTQVTVSS	high polyreactivity
QVQLVESGGGLVQAGGSLRLSCAASGRTFVYYAMGWYRPAPGKERELVAAISRSGSTYYADSVKGRFTISRDNAKNTVYLQMNSLKPEDTAVYYCARPGGPDRTSSPYPYPYGYWGQGTQVTVSS	low polyreactivity
QVQLVESGGGLVQAGGSLRLSCAASGRTFVYYAMGWYRQAPGKEREFVAAISRSGGHTSYADSVKGRFTISRDNAKNTVYLQMNSLKPEDTAVYYCAAEKRTQPTSREYYWGQGTQVTVSS	high polyreactivity

Sequence	polyreactivity (PSR sort gate)
QVQLVESGGGLVQAGGSLRLSCAASGRTFVYYAMGWYRQAPGKEREFVAAISRSGGRTSYADSVKGRFTISRDKAKNTVYLQMNSLKPEDTAVYYCAAKVRQWRQGSYSSQYDYWGQGTQVTVSS	high polyreactivity
QVQLVESGGGLVQAGGSLRLSCAASGRTFVYYAMGWYRQAPGKERELVAAIRSGGSTNYADSVKGLFSISRDTAKNTVSLQMNSLKPEDTSVYYCNAVHYYYYKGDYWGQGTQVTVSS	high polyreactivity
QVQLVESGGGLVQAGGSLRLSCAASGRTFVYYAMGWYRQAPGKERELVAAISSRGGSTYYADSVKGRFTISRDYAKNTVYLQMNSLKPEDTAVYYCAARARRRYYYWGQGTQVTVSA	high polyreactivity
QVQLVESGGGLVQAGGSLRLSCAASGRTFVYYAMGWYRQAPGKERELVAAISTGGSTNYADSVKGRFTISRDNAKNTVYLQMNSLKPEDTAVYYCAAQYYISISKYDYWGQGTQVTVSS	low polyreactivity
QVQLVESGGGLVQAGGSLRLSCAASGRTFVYYAMGWYRQAPGNERELVASISSGAGSPNYADSVKGRYTISRDNAKNTGYVQMNSLKPEDTAVYYCAVDTPRYRYYRTSYDYWRQGTQVTVSS	low polyreactivity
QVQLVESGGGLVQAGGSLRLSCAASGRTFWANAMGWYRQAPGKERELVAAITIGGRTYYADSVKGRFTISRDNAKNTVYIQMNSLKPEDTAVYYCNAGSRRPFPAESGYWGQGTQVTVSS	low polyreactivity
QVQLVESGGGLVQAGGSLRLSCAASGRTFWANAMGWYRQAPGKERELVAAITSGGSTNYADSVKGRFTISRDNAKNTVYLQMNSLKPEDTAVYYCAAAINRYRRTFNYWGQGTQVTVSS	high polyreactivity
QVQLVESGGGLVQAGGSLRLSCAASGRTFWDYGMGWYRQAPGKERELVPTISGNGGDTYYADSVKGRFTISRDNAKNTVYLQMNSLKPEDTAVYFCAADYRFYRTDRHYDYWGQGTQVTVSS	low polyreactivity
QVQLVESGGGLVQAGGSLRLSCAASGRTFWDYMGWYRQAPGKERELVATITSSGGSTYYADSVKGRFTISRDNAKNTVYLQMNSLKPEDTAVYYCNADWYLWSTFAQGYGYWGQGTQVTVSS	high polyreactivity
QVQLVESGGGLVQAGGSLRLSCAASGRTFWFYSMAWYRQAPGKERELVATINYRGGTTYYADSVKGRFTISRDNAKNTVYLQMNSLKPEDTAVYYCAVRPTRTFIYDYWGQGTQVTVSS	high polyreactivity
QVQLVESGGGLVQAGGSLRLSCAASGRTFWGYAMGWYRQAPGKERELVAAISLSGGRTNYADSVKGRFTISRDNAKNTVYLQMNSLKPEDTAVYYCAADKRPDGRMDYWGQGTQVTVSS	high polyreactivity
QVQLVESGGGLVQAGGSLRLSCAASGRTFWGYAMGWYRQAPGKERELVATISSTGSTNYADSVKGRFTISRDNAKNPVYLQMNSLKPEDTAVYYCNAKRHLYRGWYQRYDYWGQGTQVTVSS	high polyreactivity
QVQLVESGGGLVQAGGSLRLSCAASGRTFWKNTMGWYRQAPGKERELVAVISSGGVSTSYADSVKGRFTISRDNAKNTVYLQMNSLKPEDTAVYYCAADGYYIGPYDYWGQGTQVTVSS	low polyreactivity
QVQLVESGGGLVQAGGSLRLSCAASGRTFWKYAMGWYRQAPGKERELVAAITASGARTYYADSVKGRFTISRDNAKNTVYLQLNSLKPEDTAVYYCNAGSVSDRQMDYWGQGTQVTVSS	low polyreactivity
QVQLVESGGGLVQAGGSLRLSCAASGRTFWKYVMGWYRQAPGKEREVVAVISRPAGSTYYADSVKGRFTISRDNAKNTVYLQMNSLKPEETAVYYCNKPGGQSLGGYNYWVQGTQVTVSS	low polyreactivity
QVQLVESGGGLVQAGGSLRLSCAASGRTFWLYAMGWYRQATGKERELVAGISRGGRTYYADSVKGRFTISRDNAKNTVYLQMNSLKPEDTAVYYGAADRYTVRMDCWGQGTQVTVSS	high polyreactivity
QVQLVESGGGLVQAGGSLRLSCAASGRTFWNAMGWYRQAPGKERELVATITSGGITNYADSVKGRFTISRDNAKNTVYLQMNSLKPEDTAVYYCAARPYSWRNYRPSDYWGQGTQVTVSS	high polyreactivity
QVQLVESGGGLVQAGGSLRLSCAASGRTFWNYAMGWYRQAPGKERELVAAIRSSGGRTYYADSVKGRFTISRDNAKNTVYLQMNSLKPEDTAVYYCAAYGFIEGIGTYDYWGQGTQVTVSS	high polyreactivity
QVQLVESGGGLVQAGGSLRLSCAASGRTFWPNVMGWYRQAPGKERELVAAITWGDASTYYADSVKGRFTISRDNAKNTVYLQMNSLKPEDTAVYYCAASDYGRTYDYWGQGTQVTVSS	low polyreactivity
QVQLVESGGGLVQAGGSLRLSCAASGRTFWQYAMGWYRQAPGKERELVAAIRYSGGSTYYADSVKGRFTISRDNAKNTVYLQMNSLKPEDTAVYYCAKRLKPGFYYWGQGTQVTVSS	high polyreactivity
QVQLVESGGGLVQAGGSLRLSCAASGRTFWRYAMGWYIQAPGKERELVAAISSSGITYYADSVKGRFTISRDNAKNTVYLQMNSLKPEDTAVYYCAVRWGRGFWGQGTQVTVSS	high polyreactivity
